Values belong to the binder of their own block, whether it stands above or below them.
Molecular target: streptavidin, P22629
Test: SPR, BIAcore X100, streptavidin coupled to the chip, peptide in solution

streptavidin, P22629, sequence (P22629 37-163 limits assumed): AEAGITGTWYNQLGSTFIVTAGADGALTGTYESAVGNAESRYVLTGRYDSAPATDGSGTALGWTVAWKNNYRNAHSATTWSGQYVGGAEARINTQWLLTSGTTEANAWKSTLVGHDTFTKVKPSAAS

B2: linear NH2-…-COOH peptide (peptide)
peptide: H-LYDHPQNGGQ-OH
Kd: 100 µM

B3: head-to-tail cyclic … peptide (peptide)
peptide: LYDHPQNGGQ
modifications: not checked
Kd: 9.4 µM

B4: linear NH2-…-COOH peptide (peptide)
peptide: H-QNDHPQNGGQ-OH
Kd: 320 µM

Continued by falling Kd, values first:

Kd: 61.3 µM
B1: head-to-tail cyclic NQpWQ peptide (peptide)
peptide: NQPWQ
modifications: not checked

Kd: 10.8 µM
B5: head-to-tail cyclic … peptide (peptide)
peptide: QNDHPQNGGQ
modifications: not checked

Source: US20180045721A1
